Source: patent publication US20230295301A1 (SHANGHAI JUNSHI BIOSCIENCES, published 2023)
Residue numbers refer to the chain shown, from its start. Each block holds one binder with its values, some of them ahead of it.

Molecular target: T1, huCTLA-4 ECD (his-tag) (human, UniProt P16410 37-162)
T1 construct: also called HX1 hCTLA4 his; HX1 huCTLA4 his; not shown: his-tag
T1 sequence: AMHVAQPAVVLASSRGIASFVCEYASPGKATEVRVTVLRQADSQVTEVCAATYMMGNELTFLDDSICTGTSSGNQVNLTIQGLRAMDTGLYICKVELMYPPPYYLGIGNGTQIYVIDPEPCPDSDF
Test: ELISA, coated huCTLA-4 his
Procedure: HX1 hCTLA4 his was diluted with PBS (Hyclone) to 1.0 μg/mL, and the dilution was added to a microplate at 100 μL/well. The plate was let stand in an incubator at 37° C. and coated for 90 min and then washed, and 2% BSA was added to the plate at 200 μL/well. The plate was incubated in an incubator at 37° C. for 90 min and then washed. The humanized anti-CTLA-4 antibodies in Table 4 and the control antibody (ipilimumab) were diluted with a diluent (2% BSA) to 1000 ng/mL. The dilution performed each time was not higher than 10-fold. Then, the humanized antibodies and the control antibody were serially diluted 2.5-fold on a sample dilution plate. All the humanized antibody solutions and the control antibody solution were added to a microplate at 100 μL/well. The plate was incubated in an incubator at 37° C. for 60 min and then washed. An HRP-conjugated goat anti-human antibody IgG (Fc specific) was diluted 5000-fold with 2% BSA, and the dilution was added to the microplate at 100 μL/well. The plate was incubated in an incubator at 37° C. for 60 min and then washed. The color development solution TMB was added at 100 μL/well, during which bubbles were avoided. Color development was allowed at 37° C. for 15 min in the dark and then terminated by adding 2 M hydrochloric acid solution at 100 μL/well, during which bubbles were avoided. Reading (wavelength: 450/620 nm) was done within 10 min using a microplate reader.

binding result: binds
B1: HuJS007-82 (antibody, V domains shown)
VH: QVQLQESGPGLVKPSQTLSLTCAVSGYSISSGYYWNWIRQFPGKGLEWMGYIGYDGSNYYNPSLKNRVTMSVDTSKNQFSLKLSSVTAVDTAVYYCARNYYSGYFDSWGQGTTVTVSS
VL: DIVMTQSPDSLAVSLGERATINCKASQNVGTYVAWYQQKPGQPPKPLIYSTSYRYSGVPDRFSGSGSGTDFTLTISSLQAEDVAVYFCHQYDTYPLTFGAGTKLELK
notes: 1A5 VH6 + 4B7VL1; constant regions not specified

binding result: binds
B2: HuJS007-88 (antibody, V domains shown)
VH: B1 VH
VL: EIVMTQSPATLSVSPGERATLSCRASQNVGTYVAWYQQKPGQAPRPLIYSTSYRYSGIPARFSGSGSGTEFTLTISSLQSEDFAVYYCHQYDTYPLTFGQGTKLEIK
notes: 1A5 VH6 + 4B7VL7; constant regions not specified

binding result: binds
B3: HuJS007-87 (antibody, V domains shown)
VH: B1 VH
VL: B1 VL with P46L, F87Y, A100Q, L106I
notes: 1A5 VH6 + 4B7VL6; constant regions not specified

binding result: binds
B4: HuJS007-56 (antibody, V domains shown)
VH: QVQLQESGPGLVKPSETLSLTCTVSGYSITSGYYWNWIRQPPGKGLEWIGYIGYDGSNNYNPSLKSRVTISRDTSKNQFSLKLSSVTAADTAVYYCARDYYSGYFDSWGQGTTLTVSS
VL: DIQMTQSPSSLSASVGDRVTITCRASQNVGTYVAWYQQKPGKVPKPLIYSTSYRYSGVPSRFSGSGSGTDFTLTISSLQPEDVATYFCHQYDTYPLTFGAGTKLELK
notes: 4B7 VH2-3 + 4B7VL2; constant regions not specified

binding result: binds
B5: HuJS007-83 (antibody, V domains shown)
VH: B1 VH
VL: B4 VL
notes: 1A5 VH6 + 4B7VL2; constant regions not specified

binding result: binds
B6: huJS007-79 (antibody, human IgG1, kappa, V domains shown)
VH: B1 VH with F41P, M49I, N66S
VL: EIVMTQSPATLSVSPGERATLSCRASQNVGTYVAWYQQKPGQAPRPLIYSTSYRYSGIPARFSGSGSGTEFTLTISSLQSEDFAVYYCHQYDTYPLTFGQGTKLEIKR

binding result: binds
B7: HuJS007-85 (antibody, V domains shown)
VH: B1 VH
VL: B4 VL with S10F, V43A, D70E, V83F
notes: 1A5 VH6 + 4B7VL4; constant regions not specified

binding result: binds
B8: HuJS007-86 (antibody, V domains shown)
VH: B1 VH
VL: B4 VL with R24Q, V43A, L73F, V83I
notes: 1A5 VH6 + 4B7VL5; constant regions not specified

binding result: binds
B9: HuJS007-70 (antibody, V domains shown)
VH: B4 VH with E16Q, T23A, G26A, P41H
VL: B2 VL
notes: 4B7 VH2-4 + 4B7VL7; constant regions not specified

binding result: binds
B10: HuJS007-58 (antibody, V domains shown)
VH: B4 VH
VL: B4 VL with S10F, V43A, D70E, V83F
notes: 4B7 VH2-3 + 4B7VL4; constant regions not specified

binding result: binds
B11: HuJS007-67 (antibody, V domains shown)
VH: B4 VH with E16Q, T23A, G26A, P41H
VL: B4 VL with S10F, V43A, D70E, V83F
notes: 4B7 VH2-4 + 4B7VL4; constant regions not specified

binding result: binds
B12: huJS007-106 (antibody, human IgG1, kappa, V domains shown)
VH: B1 VH with S30T, F41P, M49I, Y59N, N99D
VL: B6 VL

binding result: binds
B13: HuJS007-63 (antibody, V domains shown)
VH: B4 VH
VL: B2 VL with R24K, Y87F
notes: 4B7 VH2-3 + 4B7VL9; constant regions not specified

binding result: binds
B14: HuJS007-59 (antibody, V domains shown)
VH: B4 VH
VL: B4 VL with R24Q, V43A, L73F, V83I
notes: 4B7 VH2-3 + 4B7VL5; constant regions not specified

binding result: binds
B15: HuJS007-76 (antibody, V domains shown)
VH: B1 VH with F41P, M49I, N66S
VL: B4 VL with S10F, V43A, D70E, V83F
notes: 1A5 VH5 + 4B7VL4; constant regions not specified

binding result: binds
B16: HuJS007-52 (antibody, V domains shown)
VH: B4 VH with E16Q, G26A, P41H
VL: B2 VL
notes: 4B7 VH2-2 + 4B7VL7; constant regions not specified

binding result: binds
B17: HuJS007-66 (antibody, V domains shown)
VH: B4 VH with E16Q, T23A, G26A, P41H
VL: B4 VL with V43A, V83F
notes: 4B7 VH2-4 + 4B7VL3; constant regions not specified

binding result: binds
B18: HuJS007-84 (antibody, V domains shown)
VH: B1 VH
VL: B4 VL with V43A, V83F
notes: 1A5 VH6 + 4B7VL3; constant regions not specified

binding result: binds
B19: HuJS007-61 (antibody, V domains shown)
VH: B4 VH
VL: B2 VL
notes: 4B7 VH2-3 + 4B7VL7; constant regions not specified

binding result: binds
B20: HuJS007-101 (antibody, V domains shown)
VH: B1 VH with S30T, F41P, M49I, Y59N, N99D
VL: B4 VL
notes: 4B7 VH2-5 + 4B7VL2; constant regions not specified

binding result: binds
B21: HuJS007-108 (antibody, V domains shown)
VH: B1 VH with S30T, F41P, M49I, Y59N, N99D
VL: B2 VL with R24K, Y87F
notes: 4B7 VH2-5 + 4B7VL9; constant regions not specified

binding result: binds
B22: HuJS007-57 (antibody, V domains shown)
VH: B4 VH
VL: B4 VL with V43A, V83F
notes: 4B7 VH2-3 + 4B7VL3; constant regions not specified

binding result: binds
B23: HuJS007-104 (antibody, V domains shown)
VH: B1 VH with S30T, F41P, M49I, Y59N, N99D
VL: B4 VL with R24Q, V43A, L73F, V83I
notes: 4B7 VH2-5 + 4B7VL5; constant regions not specified

binding result: binds
B24: HuJS007-102 (antibody, V domains shown)
VH: B1 VH with S30T, F41P, M49I, Y59N, N99D
VL: B4 VL with V43A, V83F
notes: 4B7 VH2-5 + 4B7VL3; constant regions not specified

binding result: binds
B25: HuJS007-74 (antibody, V domains shown)
VH: B1 VH with F41P, M49I, N66S
VL: B4 VL
notes: 1A5 VH5 + 4B7VL2; constant regions not specified

binding result: binds
B26: HuJS007-72 (antibody, V domains shown)
VH: B4 VH with E16Q, T23A, G26A, P41H
VL: B2 VL with R24K, Y87F
notes: 4B7 VH2-4 + 4B7VL9; constant regions not specified

binding result: binds
B27: HuJS007-103 (antibody, V domains shown)
VH: B1 VH with S30T, F41P, M49I, Y59N, N99D
VL: B4 VL with S10F, V43A, D70E, V83F
notes: 4B7 VH2-5 + 4B7VL4; constant regions not specified

binding result: binds
B28: HuJS007-68 (antibody, V domains shown)
VH: B4 VH with E16Q, T23A, G26A, P41H
VL: B4 VL with R24Q, V43A, L73F, V83I
notes: 4B7 VH2-4 + 4B7VL5; constant regions not specified

binding result: binds
B29: HuJS007-77 (antibody, V domains shown)
VH: B1 VH with F41P, M49I, N66S
VL: B4 VL with R24Q, V43A, L73F, V83I
notes: 1A5 VH5 + 4B7VL5; constant regions not specified

binding result: binds
B30: HuJS007-81 (antibody, V domains shown)
VH: B1 VH with F41P, M49I, N66S
VL: B2 VL with R24K, Y87F
notes: 1A5 VH5 + 4B7VL9; constant regions not specified

binding result: binds
B31: HuJS007-65 (antibody, V domains shown)
VH: B4 VH with E16Q, T23A, G26A, P41H
VL: B4 VL
notes: 4B7 VH2-4 + 4B7VL2; constant regions not specified

binding result: binds
B32: HuJS007-90 (antibody, V domains shown)
VH: B1 VH
VL: B2 VL with R24K, Y87F
notes: 1A5 VH6 + 4B7VL9; constant regions not specified

binding result: binds
B33: HuJS007-75 (antibody, V domains shown)
VH: B1 VH with F41P, M49I, N66S
VL: B4 VL with V43A, V83F
notes: 1A5 VH5 + 4B7VL3; constant regions not specified

binding result: binds
B34: HuJS007-54 (antibody, V domains shown)
VH: B4 VH with E16Q, G26A, P41H
VL: B2 VL with R24K, Y87F
notes: 4B7 VH2-2 + 4B7VL9; constant regions not specified
